The target of this experiment is plasminogen. Briefly: cell-based or functional assay.

“Bacteriophages which harbored K2S on gp3 (K2S-φ) (from UniProt P00750 209-562)”: the fibrinogen-dependent enzymatic activity (amidolytic assay with plasminogen and S-2251) was less than 0.25 IU/ml.

The values are drawn from patent EP1343909B1.
